According to patent publication US20240270859A1 (HK INNO N, published 2024):
Like-named read-outs stand apart in the source and are kept apart here.

Legend:
[1] = target: T1, human OX40L protein (OX40L-his), Acro Biosystems Cat #OXL-H52Q8 (human, UniProt P23510 51-183); assay: cell-based or functional assay
T1 sequence: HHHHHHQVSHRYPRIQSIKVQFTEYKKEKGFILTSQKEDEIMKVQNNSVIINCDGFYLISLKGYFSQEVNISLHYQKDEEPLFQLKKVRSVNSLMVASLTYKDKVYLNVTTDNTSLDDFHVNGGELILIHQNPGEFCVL

[2] = target: T1, human OX40L protein (OX40L-his), Acro …; assay: SPR (Biacore T200), antibody captured by anti-hFc on CM5 chip, antigen as analyte
Method: A surface plasmon resonance (SPR) analysis was performed by using Bicore T200, and a running buffer used was HBS-EP (10 mM HEPES, pH7.4, 150 mM NaCl, 3 mM EDTA, […] surfactant P20). A human antibody capture kit (anti-hFc antibody) was fixed onto a surface of CM5 chip through an amine coupling method. […] An analytical sample was prepared with high purity/high concentration so that the minimum dilution factor could be 100 or more, thereby minimizing a buffer effect.

[3] = target: T1, human OX40L protein (OX40L-his), Acro …; assay: cell-based or functional assay; remark: listed apart in the source
[4] = target: human TNFα (TNF-H5228 of Acro Biosystems) (human, UniProt P01375 77-233); assay: cell-based or functional assay
Chain of human TNFα (TNF-H5228 of Acro Biosystems) (P01375 77-233 limits assumed): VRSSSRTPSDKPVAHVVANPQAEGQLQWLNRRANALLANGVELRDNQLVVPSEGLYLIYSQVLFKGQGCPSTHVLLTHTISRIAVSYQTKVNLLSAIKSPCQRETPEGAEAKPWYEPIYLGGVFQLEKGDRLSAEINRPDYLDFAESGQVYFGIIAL

| Binder | IC50 (nM), OX40L blockade assay (luminescence of NFκB-luc2/OX40 Jurkat cells) [1] [nM] | IC50(µg/mL), OX40L blockade assay (luminescence of NFκB-luc2/OX40 Jurkat cells) [1] [µg/mL] | Kd [2] [nM] | koff [2] [s⁻¹] | kon [2] [M⁻¹ s⁻¹] | IC50 (nM), OX40L blockade assay (luminescence of NFκB-luc2/OX40 Jurkat cells) [3] [nM] | IC50 (nM), TNFα blockade assay (luminescence of NFκB-RE HEK293 cells) [4] [nM] |
| --- | --- | --- | --- | --- | --- | --- | --- |
| anti-OX40L antibody Hu3F07 (antibody, human IgG4 S228P, kappa, V domains shown, Humanized; IgG4 S228P / kappa) VH: QVQLVQSGAEVKKPGASVKVSCKASGFTFPDYWMHWVRQAPGQGLEWMGEIDPPNGRTNYNEKFKSRVTMTRDTSISTAYMELSRLRSDDTAVYYCARGIYYVDYWGQGTTVTVSS VL: DIVMTQSPLSLPVTLGEPASISCRSSQSLVHSNGNTYLHWYLQKPGQSPQLLIYKVSNRFSGVPDRFSGSGSGTDFTLKISRVEAEDVGVYYCSQSTHVPPTFGGGTKLEIKR | 0.2 | 0.03 | 0.282 | 0.000357 | 1.27e+06 |  |  |
| anti-OX40L antibody 21G07 (antibody, human IgG4 S228P, kappa, V domains shown, Chimeric; IgG4 S228P / kappa) VH: QVQLQQSGAELVKPGASVKLSCKASGYTFTNYWMQWVKQRPGQGLEWIGEIDPSDGRTNYNEKFKNKATLTVDRSSSTAYIKLSSLTSEDSAVYYCAREVSLRSMDYWGQGTSVTVSS VL: DIVLTQSPLSLPVSLGDQASISCRSSQSLVHSNGNTYLHWYLQKPGQSPKLLIYKVSNRFSGVPDRFSGSGSGTDFTLKISRVEAEDLGVYFCSQSTHVPFTFGSGTKLEIKR | 0.85 | 0.128 | 0.603 | 0.00065 | 1.08e+06 |  |  |
| anti-OX40L antibody 10H07 (antibody, human IgG4 S228P, kappa, V domains shown, Chimeric; IgG4 S228P / kappa) VH: QVYLQQSGAELVKPGASVKLSCKASGYTFTDYWMHWVKQRPGQGLEWIGEIDPGNGRTNYNEKFKNKATLSVDKSSNTAYMQFSSLTSEDSAVFYCASEGAGRGFPYWGQGTLVTVSA VL: DVVLTQTPLSLPVSLGDQASISCRSSQSLVHSNGNTYLHWYLQKPGQSPKLLIYKVSNRFSGVPDRFSGSGSGTDFTLKISRVEAEDLGVYFCSQSTHVPWTFGGGTKLEIKR | 0.41 | 0.061 | 0.295 | 0.000498 | 1.69e+06 |  |  |
| bispecific antibody Hu3F07-TNFαi HC (bispecific antibody) heavy: not shown light: DIVMTQSPLSLPVTLGEPASISCRSSQSLVHSNGNTYLHWYLQKPGQSPQLLIYKVSNRFSGVPDRFSGSGSGTDFTLKISRVEAEDVGVYYCSQSTHVPPTFGGGTKLEIKRTVAAPSVFIFPPSDEQLKSGTASVVCLLNNFYPREAKVQWKVDNALQSGNSQESVTEQDSKDSTYSLSSTLTLSKADYEKHKVYACEVTHQGLSSPVTKSFNRGEC | 0.21 | 0.041 | 0.45 |  |  |  |  |
| bispecific antibody I3F07-TNFαi HC (bispecific antibody) heavy: not shown light: DIVLTQSPLSLPVSLGDQASISCRSSQSLVHSNGNTYLHWYLQKPGQSPKLLIYKVSNRFSGVPDRFSGSGSGTDFTLKISRVEAEDLGVYFCSQSTHVPPTFGGGSKLEIKRTVAAPSVFIFPPSDEQLKSGTASVVCLLNNFYPREAKVQWKVDNALQSGNSQESVTEQDSKDSTYSLSSTLTLSKADYEKHKVYACEVTHQGLSSPVTKSFNRGEC |  |  |  |  |  | 0.91 | 0.055 |
| reference anti-OX40L antibody O4L (VH and VL of oxelumab) (antibody, human IgG4 S228P, kappa, V domains shown) VH: EVQLLESGGGLVQPGGSLRLSCAASGFTFNSYAMSWVRQAPGKGLEWVSIISGSGGFTYYADSVKGRFTISRDNSRTTLYLQMNSLRAEDTAVYYCAKDRLVAPGTFDYWGQGALVTVSS VL: DIQMTQSPSSLSASVGDRVTITCRASQGISSWLAWYQQKPEKAPKSLIYAASSLQSGVPSRFSGSGSGTDFTLTISSLQPEDFATYYCQQYNSYPYTFGQGTKLEIKR | 1.95 | 0.293 |  |  |  |  |  |
| bispecific antibody 02C09-TNFαi HC (bispecific antibody) heavy: not shown light: DIQMTQSPSSLSASLGDRVTITCRASQSIGRWLAWYQQKPGNAPKLLIYKATILESGVPSRFSGSGSGTEFALTISSLQPDDFSAYYCQQYNSYPYTFGQGTKLEIKRTVAAPSVFIFPPSDEQLKSGTASVVCLLNNFYPREAKVQWKVDNALQSGNSQESVTEQDSKDSTYSLSSTLTLSKADYEKHKVYACEVTHQGLSSPVTKSFNRGEC | 0.59 | 0.117 | 0.472 |  |  |  |  |
